{"source": "patent US20200277375A1", "about": "(ULTRAHUMAN FOUR, published 2020)", "binders": {"B1": {"name": "VH-A1/VL-B1 in human IgG1null format (antibody, V domains shown)", "VH": "EVQLVQSGAEVKKPGESLKISCKGSGYSFTNYYIFWVRQMPGKGLEWMGIINPVDGDTRYSPSFQGQVTISADKSISTAYLQWSSLKASDTAMYYCARGGFTMDYWGQGTLVTVSS", "VL": "not shown", "notes": "Combines the two most humanized observed v-domains; IgG1null (L234A/L235A/G237A), kappa; also called VH-A1/VI-B1"}, "B2": {"name": "A-D5.16 in human IgG1null format (antibody, V domains shown)", "VH": "B1 VH with F101Y, Y105R", "VL": "DIVMTQSPLSLPVTPGEPASISCRSSQSLLHSAGYNYLHWYLQKPGQSPQLLIYKVSNRLSGVPDRFSGSGSGTDFTLKISRVEAEDVGVYYCFQNTHTPRTFGQGTKVEIK", "notes": "Designer clone from A-D5.4; IgG1null; also called A-D.16"}, "B3": {"name": "A-D5.16-DI in human IgG1null format (antibody, V domains shown)", "VH": "B1 VH with F101Y, Y105R", "VL": "B2 VL with L60F, V88A", "notes": "Deimmunised light chain paired with the A-D5.16 VH; IgG1null"}, "B4": {"name": "mVH/mVL (chimeric VxP037) in human IgG1 format (antibody, V domains shown)", "VH": "EVQLQQFGAELVKPGASMKLSCKASGYTFTNYYVFWVKQRPGQGLEWIGDINPVNGDTNFNEKFKNKATLTVDKSSTTTYLQLSSLTSEDSAVYYCTRGGYTMDYWGQGTLVTVSS", "VL": "DVVMTQTPLSLSVSLGDQASISCRSSQSLVHSNGNTYLHWYLQKPGQSPKLLIYKVSYRFSGVPDRFSGSGSGTDFTLKISRVEAEDLGVYFCSQNTHVPRTFGQGTKVEIK", "notes": "also called mVH/mVL in IgG1"}}, "key": {"[1]": {"molecular_target": "T1, cynomolgus monkey CD47 on transfected CHO-K1 cells (cynomolgus monkey, UniProt A0A5F8AK49 19-323 (rhesus entry))", "T1 construct": "whole, on cells; also called cyno CD47+ cells", "test": "flow cytometry, cyno CD47-transfected CHO-K1, FIG. 6", "protocol": "(§1) FIG. 6A-FIG. 6C. Flow cytometric binding to human and cyno CD47+CHO-K1 cells. Commercial anti-CD47 antibody MS1991, human IgG1 (“I IgG1”) and IgG4 (“I IgG4”) Isotype controls, lead library-derived IgGs in both IgG1null (“IgG1N”) and IgG4(S228P) formats were examined for specific binding on cyno-transfected CHO-K1 cells (FIG. 6A), human-transfected CHO-K1 cells (FIG. 6B), and wild type (wt, i.e. untransfected) CHO-K1 cells (FIG. 6C). IgGs were tested at concentrations ranging from 24-100,000 ng/ml. Concentration-dependent binding was observed against both human and cyno cell lines for all CD47-specific antibodies but not Isotype controls.\n(§2) Antibodies to CD47 were analysed for concentration-dependent binding at the cell surface via flow cytometry. CHO-K1 cells were stably transfected with either human, mouse or cyno CD47 full-length cDNAs. Anti-CD47 IgGs mVH/mVL, VH-A1/VL-B1, A-D5, G-B6, F-E7 and D-H3, and an isotype control IgG1 were then all tested in IgG1null and IgG4(S228P) formats, alongside a commercial mouse anti-human CD47 monoclonal MS1991, over a concentration range of 100,000-24 ng/ml for binding to human, cyno or wild type control (‘wt’, i.e. untransfected) CHO-K1."}, "[2]": {"molecular_target": "T2, human CD47 on cells (human CD47-transfected CHO-K1; HL60) (human, UniProt Q08722 19-323)", "T2 construct": "whole, on cells; also called human CD47+ cells; human CD47+HL60 cells", "test": "flow cytometry, human CD47-transfected CHO-K1, FIG. 6", "protocol": "as §1, §2"}, "[3]": {"molecular_target": "T3, cynomolgus monkey CD47-Fc (cynomolgus monkey, UniProt A0A2K5X523 19-139)", "T3 construct": "Recombinant CD47-Fc; also called cyno CD47-Fc; cCD47-Fc; not shown: Fc part", "test": "direct specificity ELISA, IgG 1 µg/ml, FIG. 5", "from_the_text": "(§3) FIG. 5A-FIG. 5G. Binding specificity analyses for prioritized lead clones. Off-target homologue binding risk for mVH/mVL in IgG1 (FIG. 5A) and IgG1null (FIG. 5B) format and library-derived leads A-D5 (FIG. 5C), VH-A1/VL-B1 (FIG. 5D), F-E7 (FIG. 5E), D-H3 (FIG. 5F), and G-B6 (FIG. 5G) in IgG1null format was examined by direct ELISA on CD47-Fc orthologs and a panel of 14 human immunoglobulin superfamily proteins as labelled on each X-axis (“B” refers to blank). Binding to human, cyno and murine CD47-Fcs (h/c/mCD47-Fc) was performed at an IgG concentration of 1 μg/ml. Binding to all other proteins was performed at an IgG concentration of 10 μg/ml.\n(§4) To ensure that that lead clones had not suffered from loss of target specificity during the mutation and reselection process; lead and control IgG1 clones were tested for binding to a panel of 14 purified human proteins from the immunoglobulin superfamily (FIG. 5)."}, "human CD47-Fc [4]": {"molecular_target": "T4, human CD47-Fc (human, UniProt Q08722 19-139)", "T4 construct": "Recombinant CD47-Fc; also called hCD47-Fc; not shown: Fc part", "test": "direct specificity ELISA, IgG 1 µg/ml, FIG. 5", "from_the_text": "as §3, §4"}, "mouse CD47-Fc [5]": {"molecular_target": "T5, mouse CD47-Fc (mouse, UniProt Q61735 19-140, limits assumed)", "T5 construct": "Recombinant CD47-Fc; also called mCD47-Fc; mCD37-Fc [sic]; not shown: Fc part", "T5 sequence (looked up)": "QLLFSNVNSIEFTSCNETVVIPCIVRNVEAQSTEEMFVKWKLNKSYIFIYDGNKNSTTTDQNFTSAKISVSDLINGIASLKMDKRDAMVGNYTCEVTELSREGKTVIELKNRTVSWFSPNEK", "test": "direct titration ELISA on coated CD47-Fc, FIG. 3", "protocol": "FIG. 3A-FIG. 3H. Direct titration ELISA for IgG binding to human, mouse and cyno CD47-Fc proteins. Chimeric anti-CD47 (mVH/mVL), library-derived clones in human IgG1 null format were titrated (in μg/ml) in a direct binding ELISA against human, mouse and cyno CD47-Fc proteins (FIG. 3A-FIG. 3H). […] Clone TTP lost almost all binding function.\n(§5) To coat Greiner Bio-One High bind ELISA plates, target proteins were diluted to 1 μg/ml in carbonate buffer and added at 100 μl per well, at 4° C., o/n. Coated plates were washed 3× with PBS pH7.4, blocked with 1% BSA in PBS (380 μl/well) for 1 hr at RT, then washed 3× with PBS-Tween 20 (PBST). CD47 antibodies (100 μl/well; diluted in PBST) were then added and then incubated 1 hr at RT. Plates were then washed 3× with PBST and goat anti-human kappa chain-HRP added (100 μl/well) at RT, for 1 hr. Plates were then washed 3× with PBST and twice with PBS before the addition of 100 μl TMB per well. Reactions were stopped by adding 100 μl 2M H₂SO₄/well and OD was read on a plate reader at 450 nm."}, "mouse CD47-Fc [6]": {"molecular_target": "T5, mouse CD47-Fc", "test": "direct titration ELISA (FIG. 11) or CD47-SIRPα competition ELISA (FIG. 12)", "protocol": "as §5\n(§6) A competition ELISA assay was established to examine the capacity of optimized leads to block the binding interaction of CD47 with SIRPα. To coat Greiner Bio-One High bind ELISA plates, 10 μg/ml human SIRPα-Fc in carbonate coating buffer was added at 100 μl per well, at 4° C., o/n. Coated plates were washed 3× with PBS pH7.4, blocked with 1% BSA in PBS (380 μl/well) for 1 hr at RT, then washed 3× with PBS-Tween 20 (PBST). Biotinylated human, mouse or cyno CD47-Fc was then added at 0.2 μg/ml in PBS, 100 μl per well, at room temperature for 60 minutes with or without the addition of competing IgGs. Plates were then washed 3× with PBST and Streptavidin-HRP added (100 μl/well) at room temperature, for 1 hr. Plates were then washed 3× with PBST and twice with PBS before the addition of 100 μl TMB per well. Reactions were stopped by adding 100 μl 2M H₂SO₄/well and OD was read on a plate reader at 450 nm."}, "[7]": {"molecular_target": "T3, cynomolgus monkey CD47-Fc", "test": "direct titration ELISA (FIG. 11) or CD47-SIRPα competition ELISA (FIG. 12)", "protocol": "as §5, §6"}, "human CD47-Fc [8]": {"molecular_target": "T4, human CD47-Fc", "test": "direct titration ELISA (FIG. 11) or CD47-SIRPα competition ELISA (FIG. 12)", "protocol": "as §5, §6"}, "mouse CD47-Fc [9]": {"molecular_target": "T5, mouse CD47-Fc", "test": "direct specificity ELISA, IgG 10 µg/ml, FIG. 13"}, "[10]": {"molecular_target": "T3, cynomolgus monkey CD47-Fc", "test": "direct specificity ELISA, IgG 10 µg/ml, FIG. 13"}, "human CD47-Fc [11]": {"molecular_target": "T4, human CD47-Fc", "test": "direct specificity ELISA, IgG 10 µg/ml, FIG. 13"}, "human CD47-Fc [12]": {"molecular_target": "T4, human CD47-Fc", "test": "direct titration ELISA, FIG. 18A", "protocol": "(§7) FIG. 18A-FIG. 18C. Direct titration ELISA for A-D5.16 and A-D5.16-DI designer IgGs binding to human, mouse and cyno CD47-Fc proteins. Chimeric anti-CD47 (mVH/mVL), designer A-D5.16 and A-D5.16-DI clones in human IgG1null format were titrated (in μg/ml) in a direct binding ELISA against human (FIG. 18A), cyno (FIG. 18B) and mouse (FIG. 18C) CD47-Fc proteins.\nas §5"}, "mouse CD47-Fc [13]": {"molecular_target": "T5, mouse CD47-Fc", "test": "direct titration ELISA, FIG. 18C", "protocol": "as §7, §5"}, "mouse CD47-Fc [14]": {"molecular_target": "T5, mouse CD47-Fc", "test": "direct specificity ELISA, IgG 1 µg/ml, FIG. 5A", "from_the_text": "as §3, §4"}}, "note": "Numbering of substitutions follows the chain as printed. Numbers in names are those of the source.", "data": [{"binder": "B1", "values": [{"measurement": "maximum MFI, fold over untransfected CHO-K1", "setting": "[1]", "result": "> 10", "unit": "fold"}, {"measurement": "maximum MFI, fold over untransfected CHO-K1", "setting": "[2]", "result": "> 10", "unit": "fold"}, {"measurement": "OD450 nm", "setting": "[3]", "result": "> 2", "unit": "OD450 nm"}, {"measurement": "OD450 nm", "setting": "human CD47-Fc [4]", "result": "> 2", "unit": "OD450 nm"}, {"measurement": "binding result", "setting": "mouse CD47-Fc [5]", "result": "no binding"}]}, {"binder": "B2", "values": [{"measurement": "fold reduction in potency versus A-D5 and mVL/mVH", "setting": "mouse CD47-Fc [6]", "result": "~3", "unit": "fold"}, {"measurement": "fold reduction in potency versus A-D5 and mVL/mVH", "setting": "[7]", "result": "~3", "unit": "fold"}, {"measurement": "fold reduction in potency versus A-D5 and mVL/mVH", "setting": "human CD47-Fc [8]", "result": "~3", "unit": "fold"}, {"measurement": "OD450 nm", "setting": "mouse CD47-Fc [9]", "result": "> 2", "unit": "OD450 nm"}, {"measurement": "OD450 nm", "setting": "[10]", "result": "> 2", "unit": "OD450 nm"}, {"measurement": "OD450 nm", "setting": "human CD47-Fc [11]", "result": "> 2", "unit": "OD450 nm"}]}, {"binder": "B3", "values": [{"measurement": "binding result", "setting": "human CD47-Fc [12]", "result": "binds"}, {"measurement": "binding result", "setting": "mouse CD47-Fc [13]", "result": "binds"}]}, {"binder": "B4", "values": [{"measurement": "binding result", "setting": "mouse CD47-Fc [14]", "result": "binds"}]}]}
